This is an account of results in article doi:10.1101/2024.04.22.590578.

Experiment in all cases: crystal structure
Experiment [1] concerns the target SARS-CoV-2 M^pro G15S (SARS-CoV-2).
Experiment [2] addresses SARS-CoV-2 M^pro K90R (SARS-CoV-2).
Experiment [3] has as its target SARS-CoV-2 M^pro M49I (SARS-CoV-2).
The target of experiment [4] is SARS-CoV-2 M^pro P132H (SARS-CoV-2).
Experiment [5] has as its target SARS-CoV-2 M^pro S46F (SARS-CoV-2).
Experiment [6] addresses SARS-CoV-2 M^pro V186F (SARS-CoV-2).
The target of experiment [7] is SARS-CoV-2 M^pro Y54C (SARS-CoV-2).

By stoichiometry N is commonly meant the number of molecules, sites or subunits per partner or assembly. SARS-CoV-2 M^pro G15S (enzyme) gave a stoichiometry N in experiment [1] of 2.
Regarding SARS-CoV-2 M^pro K90R (enzyme), the stoichiometry N in experiment [2] turned out to be 2.
In experiment [3], SARS-CoV-2 M^pro M49I (enzyme) came in with a stoichiometry N of 2.
In turn, SARS-CoV-2 M^pro P132H (enzyme) registered a stoichiometry N in experiment [4] of 2.
SARS-CoV-2 M^pro S46F (enzyme) returned a stoichiometry N in experiment [5] of 2.
Regarding SARS-CoV-2 M^pro V186F (enzyme), in experiment [6], the stoichiometry N was determined as 2.
With SARS-CoV-2 M^pro Y54C (enzyme), the stoichiometry N in experiment [7] was 2.
